# Laboratory results reported in the supplement of paper PMC9732359.
# ± gives the uncertainty stated by the source.
# Experiment: protein stability index of a GFP-peptide fusion (yeast GPS) (PSI 1-4); higher = more stable; sorted into four equal gates, so the index is relative within each strain
# Procedure, shortened: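 Plasmids in a pooled yeast library fused tiled 17-residue yeast protein peptides downstream of GFP and also expressed Cherry. Mid-log cultures grown without leucine were sorted into four equal gates by GFP/Cherry fluorescence ratio. Each gate's plasmids were PCR-amplified and Illumina-sequenced, and reads were matched to strains by barcodes. The protein stability index is derived by multiplying each gate's read frequency by its gate number and summing the results.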
Sequence,protein stability index (doa10∆),protein stability index (pdr5∆),protein stability index (san1∆),protein stability index (ubr1∆)
QPQQSTIGGGLFGNKPT [YGR119C/NUP57],2.75 ± 0.087,2.73 ± 0.15,3.55 ± 0.15,1.38 ± 0.19
QPSYNSAIIENAFRKEE [GAL11],2.86 ± 0.086,2.68 ± 0.091,2.74 ± 0.077,2.76 ± 0.055
QPVNPKPFLKGLVNHRV [SMX3],3.07 ± 0.054,3.09 ± 0.057,3.16 ± 0.041,3.06 ± 0.055
QQAQAQAQAQAQAQAQA [GAL11],2.78 ± 0.097,3.06 ± 0.17,2.92 ± 0.081,3.12 ± 0.12
QQDQPEQSEQPEQHQDK [RPN10],3.04 ± 0.059,3.14 ± 0.054,2.83 ± 0.048,3.13 ± 0.058
QQKANLLSSSNFEATKK [COR1],2.27 ± 0.069,2.5 ± 0.075,2.1 ± 0.086,1.91 ± 0.05
QQNIKFRRDFLLREYDI [YJL039C/NUP192],2.5 ± 0.058,2.57 ± 0.055,2.9 ± 0.045,2.63 ± 0.037
QQPQTNTAPGLGNTVST [YGR119C/NUP57],3.03 ± 0.097,3.34 ± 0.1,3.04 ± 0.073,3.06 ± 0.058
QQQIESNEEQRNLDSAT [SMC3],–,–,3.43 ± 0.091,–
QQQIIKIRITLTSTKVK [RPS20],1.91 ± 0.056,1.84 ± 0.048,1.59 ± 0.1,2.71 ± 0.043
QQQQDLQQQQQVVTTVA [SNF6],1.55 ± 0.097,1.87 ± 0.083,1.87 ± 0.23,1.54 ± 0.092
QQQQQQQQQQQHIYPSS [GAL11],2.691 ± 0.02,2.78 ± 0.02,2.693 ± 0.017,2.811 ± 0.018
QQSTDADEDDEDAKYVI [RPT1],–,3.56 ± 0.27,–,3.8 ± 0.14
QQVEGKLSQMILDKIFY [RPN6],2.81 ± 0.074,2.84 ± 0.081,3.01 ± 0.096,2.94 ± 0.062
QREAAAEYAQLLAKRLS [RPS6A],1.78 ± 0.059,1.6 ± 0.055,1.7 ± 0.11,2.11 ± 0.046
QREFKEIMEERNVEQKL [NNF1],–,–,2.79 ± 0.24,–
QRKKQSDVLRFLQRVRV [RPL15A],1.38 ± 0.16,2.26 ± 0.21,1.78 ± 0.26,1.56 ± 0.099
QRLIFAGKQLEDGRTLS [RPS31],2.8 ± 0.12,2.97 ± 0.078,3.38 ± 0.067,2.27 ± 0.12
QSLGLDDLQKFNGIENQ [ISW2],2.77 ± 0.1,2.73 ± 0.082,2.44 ± 0.07,2.69 ± 0.043
QSQLNVTLSQLVSVTST [MED8],1.39 ± 0.025,1.79 ± 0.026,1.44 ± 0.049,1.3 ± 0.019
QSSESFDDSDITKFALF [YML103C/NUP188],2.44 ± 0.1,2.23 ± 0.071,2.48 ± 0.083,2.46 ± 0.075
QSSLDVAGLEDKFRKAC [SIR3],3.62 ± 0.14,3.18 ± 0.16,3.42 ± 0.13,3.06 ± 0.21
QSSLSKVDIPLEVVQYI [NUT2],2.69 ± 0.081,2.16 ± 0.086,2.24 ± 0.083,2.29 ± 0.071
QTAVTCESCSTILCTPT [RPS27A],1.93 ± 0.04,2.05 ± 0.044,1.91 ± 0.056,1.82 ± 0.04
QTKEIKTERVEDQKVVD [RPL6B],3.55 ± 0.088,3.33 ± 0.11,3.48 ± 0.068,3.53 ± 0.076
QTKENKRCVGVILGDAN [RPN8],2.89 ± 0.053,2.9 ± 0.05,2.74 ± 0.055,2.73 ± 0.04

Sequence,protein stability index (doa10∆),protein stability index (pdr5∆),protein stability index (san1∆),protein stability index (ubr1∆)
QTPAEKHAFMGTLKKDL [RPL3],3.08 ± 0.17,3.21 ± 0.062,2.96 ± 0.11,2.96 ± 0.093
QTWSYLSLYSTDLENSS [ECM29],2.41 ± 0.064,2.25 ± 0.052,2.66 ± 0.05,2.76 ± 0.049
QVIVDIFSVHGNTVVDG [YCG1],2.08 ± 0.11,2.12 ± 0.068,1.4 ± 0.2,2.34 ± 0.035
QVLVTTNQDGLKFVKVR [RPB2],1.41 ± 0.075,1.78 ± 0.1,1.69 ± 0.14,1.33 ± 0.11
QVRNQVFMLDTKRLGTP [RGR1],2.77 ± 0.099,2.46 ± 0.11,2.75 ± 0.084,2.89 ± 0.17
QVSEVDPGRYNKVCRIE [RPB8],3.07 ± 0.13,3.04 ± 0.081,2.65 ± 0.084,2.93 ± 0.06
QWIKFLLHTLYLRPASA [SSN8],1.81 ± 0.051,1.59 ± 0.042,1.4 ± 0.073,1.72 ± 0.035
QWSIEIVLLDDEGKEIP [TAF14],1.99 ± 0.06,2.1 ± 0.06,2.71 ± 0.066,2.75 ± 0.068
QYEHLIKGIREYEEWQK [YDL116W/NUP84],3.11 ± 0.1,2.99 ± 0.079,2.88 ± 0.13,2.62 ± 0.083
QYTQRLSKLEKALDRHE [SRP68],2.52 ± 0.046,2.65 ± 0.035,2.72 ± 0.039,2.66 ± 0.037
RAAKLAAPENEKPAPVR [RPS15],3.21 ± 0.1,3.15 ± 0.11,2.89 ± 0.073,3.36 ± 0.082
RAASVGSLKLIELLCGL [NAS6],2.18 ± 0.075,2.13 ± 0.11,1.94 ± 0.11,1.83 ± 0.063
RADTMDFKTDVDEPMTS [YJL039C/NUP192],3.26 ± 0.087,3.28 ± 0.089,3.25 ± 0.11,3.3 ± 0.066
RAGIIIAKLSVIPIRRG [RPS2],2.21 ± 0.077,2.13 ± 0.047,1.31 ± 0.13,2.25 ± 0.072
RAGVSQVLNRYTYSSTL [RPB2],2.96 ± 0.044,2.9 ± 0.041,2.9 ± 0.038,2.76 ± 0.036
RAIDSLIQKGYLQRGDD [CDC53],1.68 ± 0.066,1.94 ± 0.069,2.17 ± 0.12,2.06 ± 0.077
RALFETKLNLHCVIEDD [RRI1],2.36 ± 0.11,2.8 ± 0.071,2.8 ± 0.057,2.29 ± 0.1
RALKVRNAQAQREAAAE [RPS6A],3 ± 0.14,2.98 ± 0.1,2.74 ± 0.074,2.94 ± 0.13
RARLKGKEGRIRGNLMG [RPO21],3.37 ± 0.097,3.19 ± 0.12,3.32 ± 0.088,2.96 ± 0.081
RCFSCGKVVGDKWESYL [RPB10],1.73 ± 0.14,2.11 ± 0.1,1.98 ± 0.16,–
RCNDNLMRSCFYLMVSS [YJL039C/NUP192],1.46 ± 0.043,1.72 ± 0.054,2.31 ± 0.057,1.1 ± 0.038
RCYQPFELFDNKTAHLS [SNU114],2.27 ± 0.1,2.71 ± 0.08,2.53 ± 0.061,2.24 ± 0.041
RDALRNIKNTNEEATPI [RRP6],2.76 ± 0.07,2.99 ± 0.081,2.86 ± 0.06,2.94 ± 0.064
RDDEPKLYQTEPSGIYS [PRE6],3.14 ± 0.058,3.07 ± 0.082,3.09 ± 0.051,3.18 ± 0.046
RDIEKITSLYALIRRDF [CDC53],2.1 ± 0.035,1.89 ± 0.03,1.84 ± 0.05,1.75 ± 0.021
RDREPKEPVALIETVRQ [RPN2],3.32 ± 0.081,3.47 ± 0.12,3.12 ± 0.079,3.34 ± 0.071
